# B1: Centrosomal protein POC5 (Homo sapiens), Q8NA72 (parent)
# chain: MSSDEEKYSLPVVQNDSSRGSSVSSNLQEEYEELLHYAIVTPNIEPCASQSSHPKGELVPDVRISTIHDILHSQGNNSEVRETAIEVGKGCDFHISSHSKTDESSPVLSPRKPSHPVMDFFSSHLLADSSSPATNSSHTDAHEILVSDFLVSDENLQKMENVLDLWSSGLKTNIISELSKWRLNFIDWHRMEMRKEKEKHAAHLKQLCNQINELKELQKTFEISIGRKDEVISSLSHAIGKQKEKIELMRTFFHWRIGHVRARQDVYEGKLADQYYQRTLLKKVWKVWRSVVQKQWKDVVERACQARAEEVCIQISNDYEAKVAMLSGALENAKAEIQRMQHEKEHFEDSMKKAFMRGVCALNLEAMTIFQNRNDAGIDSTNNKKEEYGPGVQGKEHSAHLDPSAPPMPLPVTSPLLPSPPAAVGGASATAVPSAASMTSTRAASASSVHVPVSALGAGSAATAASEEMYVPRVVTSAQQKAGRTITARITGRCDFASKNRISSSLAIMGVSPPMSSVVVEKHHPVTVQTIPQATAAKYPRTIHPESSTSASRSLGTRSAHTQSLTSVHSIKVVD
# partner: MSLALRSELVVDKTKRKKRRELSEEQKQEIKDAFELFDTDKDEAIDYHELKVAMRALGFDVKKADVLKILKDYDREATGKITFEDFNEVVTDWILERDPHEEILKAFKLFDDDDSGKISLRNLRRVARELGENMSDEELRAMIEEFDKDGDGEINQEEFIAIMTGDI
# B2: Cyclin-H (Homo sapiens), P51946 (parent)
# chain: MYHNSSQKRHWTFSSEEQLARLRADANRKFRCKAVANGKVLPNDPVFLEPHEEMTLCKYYEKRLLEFCSVFKPAMPRSVVGTACMYFKRFYLNNSVMEYHPRIIMLTCAFLACKVDEFNVSSPQFVGNLRESPLGQEKALEQILEYELLLIQQLNFHLIVHNPYRPFEGFLIDLKTRYPILENPEILRKTADDFLNRIALTDAYLLYTPSQIALTAILSSASRAGITMESYLSESLMLKENRTCLSQLLDIMKSMRNLVKKYEPPRSEEVAVLKQKLERCHSAELALNVITKKRKGYEDDDYVSKKSKHEEEEWTDDDLVESL
# B3: Probable thioesterase PNKD (Homo sapiens), Q8N490 (parent)
# chain: MAAVVAATALKGRGARNARVLRGILAGATANKASHNRTRALQSHSSPEGKEEPEPLSPELEYIPRKRGKNPMKAVGLAWYSLYTRTWLGYLFYRQQLRRARNRYPKGHSKTQPRLFNGVKVLPIPVLSDNYSYLIIDTQAQLAVAVDPSDPRAVQASIEKEGVTLVAILCTHKHWDHSGGNRDLSRRHRDCRVYGSPQDGIPYLTHPLCHQDVVSVGRLQIRALATPGHTQGHLVYLLDGEPYKGPSCLFSGDLLFLSGCGRTFEGNAETMLSSLDTVLGLGDDTLLWPGHEYAEENLGFAGVVEPENLARERKMQWVQRQRLERKGTCPSTLGEERSYNPFLRTHCLALQEALGPGPGPTGDDDYSRAQLLEELRRLKDMHKSK
# partner: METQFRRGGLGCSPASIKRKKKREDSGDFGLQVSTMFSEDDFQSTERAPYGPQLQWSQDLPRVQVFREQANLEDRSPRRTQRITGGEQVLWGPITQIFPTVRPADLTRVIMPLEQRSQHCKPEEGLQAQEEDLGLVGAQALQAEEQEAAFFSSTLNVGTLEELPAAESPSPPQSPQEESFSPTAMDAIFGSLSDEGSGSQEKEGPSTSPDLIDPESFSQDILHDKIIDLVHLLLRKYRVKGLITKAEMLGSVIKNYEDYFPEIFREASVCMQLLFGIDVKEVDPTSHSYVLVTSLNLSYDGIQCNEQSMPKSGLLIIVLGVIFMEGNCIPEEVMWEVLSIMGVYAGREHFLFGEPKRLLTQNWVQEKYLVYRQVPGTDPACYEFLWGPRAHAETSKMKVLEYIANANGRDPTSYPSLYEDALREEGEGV
# B4: Ribose-phosphate pyrophosphokinase 1 (Homo sapiens), P60891 (parent)
# chain: MPNIKIFSGSSHQDLSQKIADRLGLELGKVVTKKFSNQETCVEIGESVRGEDVYIVQSGCGEINDNLMELLIMINACKIASASRVTAVIPCFPYARQDKKDKSRAPISAKLVANMLSVAGADHIITMDLHASQIQGFFDIPVDNLYAEPAVLKWIRENISEWRNCTIVSPDAGGAKRVTSIADRLNVDFALIHKERKKANEVDRMVLVGDVKDRVAILVDDMADTCGTICHAADKLLSAGATRVYAILTHGIFSGPAISRINNACFEAVVVTNTIPQEDKMKHCSKIQVIDISMILAEAIRRTHNGESVSYLFSHVPL
# B5: Keratin, type I cytoskeletal 40 (Homo sapiens), Q6A162 (parent)
# chain: MTSDCSSTHCSPESCGTASGCAPASSCSVETACLPGTCATSRCQTPSFLSRSRGLTGCLLPCYFTGSCNSPCLVGNCAWCEDGVFTSNEKETMQFLNDRLASYLEKVRSLEETNAELESRIQEQCEQDIPMVCPDYQRYFNTIEDLQQKILCTKAENSRLAVQLDNCKLATDDFKSKYESELSLRQLLEADISSLHGILEELTLCKSDLEAHVESLKEDLLCLKKNHEEEVNLLREQLGDRLSVELDTAPTLDLNRVLDEMRCQCETVLANNRREAEEWLAVQTEELNQQQLSSAEQLQGCQMEILELKRTASALEIELQAQQSLTESLECTVAETEAQYSSQLAQIQCLIDNLENQLAEIRCDLERQNQEYQVLLDVKARLEGEINTYWGLLDSEDSRLSCSPCSTTCTSSNTCEPCSAYVICTVENCCL
# Variants of: B1
# Details: with cetn3_human CETN3, O15182
row,Variant,effect of a mutation on the interaction
1,H36R,with no effect

# Variants of: B2
# Details: with klc3_human KLC3, Q6P597
# Chain of klc3_human KLC3, Q6P597 (Q6P597 whole entry): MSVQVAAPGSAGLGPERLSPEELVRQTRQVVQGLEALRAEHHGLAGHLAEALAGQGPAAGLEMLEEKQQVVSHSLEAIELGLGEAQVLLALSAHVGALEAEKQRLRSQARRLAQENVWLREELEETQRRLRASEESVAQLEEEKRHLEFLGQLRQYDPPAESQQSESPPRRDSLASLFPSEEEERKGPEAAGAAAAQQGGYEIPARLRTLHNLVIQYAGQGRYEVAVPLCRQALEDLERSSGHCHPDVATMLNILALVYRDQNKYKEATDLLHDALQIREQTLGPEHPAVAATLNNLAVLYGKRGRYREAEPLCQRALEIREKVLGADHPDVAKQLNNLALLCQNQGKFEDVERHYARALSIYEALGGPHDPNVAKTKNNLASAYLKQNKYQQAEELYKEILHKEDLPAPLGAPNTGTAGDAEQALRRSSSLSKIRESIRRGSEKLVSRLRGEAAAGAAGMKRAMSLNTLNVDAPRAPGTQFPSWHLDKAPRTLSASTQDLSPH
row,Variant,effect of a mutation on the interaction
1,N155T,disrupting interaction strength

# Variants of: B2
# Details: with lipa1_human PPFIA1, Q13136
# Chain of lipa1_human PPFIA1, Q13136 (Q13136 whole entry): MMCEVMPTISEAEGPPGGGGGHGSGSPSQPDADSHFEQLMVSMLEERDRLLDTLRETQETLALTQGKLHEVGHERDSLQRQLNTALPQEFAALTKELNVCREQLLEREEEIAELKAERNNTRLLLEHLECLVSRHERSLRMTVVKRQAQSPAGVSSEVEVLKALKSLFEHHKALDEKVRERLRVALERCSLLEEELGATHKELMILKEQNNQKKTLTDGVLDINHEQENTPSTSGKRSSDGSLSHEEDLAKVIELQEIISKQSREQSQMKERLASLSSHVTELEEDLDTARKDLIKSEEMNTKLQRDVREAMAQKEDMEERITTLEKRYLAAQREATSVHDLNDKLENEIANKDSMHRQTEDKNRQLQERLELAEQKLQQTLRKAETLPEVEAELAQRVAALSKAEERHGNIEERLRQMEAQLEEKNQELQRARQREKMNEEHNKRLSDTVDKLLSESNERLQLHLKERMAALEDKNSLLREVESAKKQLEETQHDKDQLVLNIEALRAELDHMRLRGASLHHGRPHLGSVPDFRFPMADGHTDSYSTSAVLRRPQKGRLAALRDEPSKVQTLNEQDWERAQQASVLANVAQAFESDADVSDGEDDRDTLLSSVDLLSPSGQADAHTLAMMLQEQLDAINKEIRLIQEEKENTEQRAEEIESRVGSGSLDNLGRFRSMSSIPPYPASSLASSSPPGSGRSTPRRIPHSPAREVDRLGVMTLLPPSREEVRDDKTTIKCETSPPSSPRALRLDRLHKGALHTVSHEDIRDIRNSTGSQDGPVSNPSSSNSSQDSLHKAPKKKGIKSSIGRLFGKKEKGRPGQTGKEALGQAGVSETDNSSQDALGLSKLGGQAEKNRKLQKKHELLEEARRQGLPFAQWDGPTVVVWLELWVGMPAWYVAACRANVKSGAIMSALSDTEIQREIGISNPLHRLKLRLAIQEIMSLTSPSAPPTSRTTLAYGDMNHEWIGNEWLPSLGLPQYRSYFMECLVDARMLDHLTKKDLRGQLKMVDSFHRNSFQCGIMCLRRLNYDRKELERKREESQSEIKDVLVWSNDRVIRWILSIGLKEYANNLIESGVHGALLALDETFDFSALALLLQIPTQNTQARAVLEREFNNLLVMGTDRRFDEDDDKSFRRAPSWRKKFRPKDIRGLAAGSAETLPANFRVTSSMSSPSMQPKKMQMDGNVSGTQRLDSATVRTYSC
row,Variant,effect of a mutation on the interaction
1,N155T,disrupting interaction strength

# Variants of: B2
# Details: with dus12_human DUSP12, Q9UNI6
# Chain of dus12_human DUSP12, Q9UNI6 (Q9UNI6 whole entry): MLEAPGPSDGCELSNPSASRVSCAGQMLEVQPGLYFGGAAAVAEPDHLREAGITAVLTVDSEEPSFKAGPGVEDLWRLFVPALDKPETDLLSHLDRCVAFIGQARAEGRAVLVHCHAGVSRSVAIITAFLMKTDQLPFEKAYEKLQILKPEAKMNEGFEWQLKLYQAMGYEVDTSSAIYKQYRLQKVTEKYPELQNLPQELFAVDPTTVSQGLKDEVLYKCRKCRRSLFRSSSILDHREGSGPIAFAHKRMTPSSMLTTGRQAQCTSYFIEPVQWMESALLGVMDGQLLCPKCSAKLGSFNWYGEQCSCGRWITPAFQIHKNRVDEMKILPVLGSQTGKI
row,Variant,effect of a mutation on the interaction
1,N155T,disrupting interaction strength

# Variants of: B3
# Details: with magab_human MAGEA11, P43364
row,Variant,effect of a mutation on the interaction
1,R377Q,with no effect

# Variants of: B4
# Details: with gors2_human GORASP2, Q9H8Y8
row,Variant,effect of a mutation on the interaction
1,D183H,with no effect
2,E43D,with no effect

# Variants of: B4
# Details: with prps2_human PRPS2, P11908
row,Variant,effect of a mutation on the interaction
1,D183H,disrupting interaction strength
2,E43D,disrupting interaction strength

# Variants of: B4
# Details: with gors2_human GORASP2, Q9H8Y8
# Remark: another data set of the same source
row,Variant,effect of a mutation on the interaction
1,D203H,with no effect

# Variants of: B4
# Details: with prps2_human PRPS2, P11908
# Remark: another data set of the same source
row,Variant,effect of a mutation on the interaction
1,D203H,disrupting interaction strength

# Variants of: B5
# Details: with wt1_human WT1, P19544
# Chain of wt1_human WT1, P19544 (P19544 whole entry): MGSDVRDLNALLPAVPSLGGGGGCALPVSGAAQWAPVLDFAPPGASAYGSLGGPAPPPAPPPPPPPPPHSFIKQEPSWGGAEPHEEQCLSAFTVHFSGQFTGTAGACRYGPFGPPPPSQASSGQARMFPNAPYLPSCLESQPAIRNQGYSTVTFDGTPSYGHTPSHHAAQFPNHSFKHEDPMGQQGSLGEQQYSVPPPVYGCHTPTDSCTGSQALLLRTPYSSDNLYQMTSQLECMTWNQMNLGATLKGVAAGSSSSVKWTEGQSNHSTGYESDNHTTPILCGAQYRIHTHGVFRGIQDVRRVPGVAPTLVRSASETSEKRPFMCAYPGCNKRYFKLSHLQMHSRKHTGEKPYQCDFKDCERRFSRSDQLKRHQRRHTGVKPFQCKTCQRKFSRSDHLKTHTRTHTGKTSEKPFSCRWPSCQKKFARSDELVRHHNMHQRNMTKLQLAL
row,Variant,effect of a mutation on the interaction
1,F85S,with no effect
2,T37A,with no effect

# Other lines, results leading:
row,effect of a mutation on the interaction,Variant
1,with no effect,T388M
2,with no effect,R235H
3,with no effect,E286D
4,with no effect,C265Y
5,with no effect,W390R
6,with no effect,M303T

# Variants of: B5
# Details: with k2c4_human KRT4, P19013
# Chain of k2c4_human KRT4, P19013 (P19013 whole entry): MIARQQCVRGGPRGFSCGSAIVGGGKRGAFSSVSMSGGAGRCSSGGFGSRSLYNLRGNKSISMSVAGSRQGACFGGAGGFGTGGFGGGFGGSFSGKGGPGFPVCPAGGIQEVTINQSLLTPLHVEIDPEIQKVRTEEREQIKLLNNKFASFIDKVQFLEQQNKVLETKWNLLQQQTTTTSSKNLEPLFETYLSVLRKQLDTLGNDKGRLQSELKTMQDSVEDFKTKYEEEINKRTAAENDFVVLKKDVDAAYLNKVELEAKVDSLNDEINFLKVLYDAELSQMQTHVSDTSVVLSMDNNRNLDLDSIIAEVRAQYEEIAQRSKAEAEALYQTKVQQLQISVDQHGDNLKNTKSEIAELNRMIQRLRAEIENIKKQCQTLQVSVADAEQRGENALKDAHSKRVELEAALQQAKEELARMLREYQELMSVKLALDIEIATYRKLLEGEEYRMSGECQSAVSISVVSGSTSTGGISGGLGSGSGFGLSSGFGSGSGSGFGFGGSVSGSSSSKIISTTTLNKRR
row,Variant,effect of a mutation on the interaction
1,F85S,with no effect
2,T37A,with no effect

# Other lines, results leading:
row,effect of a mutation on the interaction,Variant
1,with no effect,T388M
2,with no effect,R235H
3,with no effect,E286D
4,with no effect,C265Y
5,with no effect,W390R
6,with no effect,M303T

# Variants of: B5
# Details: with mta1_human MTA1, Q13330
# Chain of mta1_human MTA1, Q13330 (Q13330 whole entry): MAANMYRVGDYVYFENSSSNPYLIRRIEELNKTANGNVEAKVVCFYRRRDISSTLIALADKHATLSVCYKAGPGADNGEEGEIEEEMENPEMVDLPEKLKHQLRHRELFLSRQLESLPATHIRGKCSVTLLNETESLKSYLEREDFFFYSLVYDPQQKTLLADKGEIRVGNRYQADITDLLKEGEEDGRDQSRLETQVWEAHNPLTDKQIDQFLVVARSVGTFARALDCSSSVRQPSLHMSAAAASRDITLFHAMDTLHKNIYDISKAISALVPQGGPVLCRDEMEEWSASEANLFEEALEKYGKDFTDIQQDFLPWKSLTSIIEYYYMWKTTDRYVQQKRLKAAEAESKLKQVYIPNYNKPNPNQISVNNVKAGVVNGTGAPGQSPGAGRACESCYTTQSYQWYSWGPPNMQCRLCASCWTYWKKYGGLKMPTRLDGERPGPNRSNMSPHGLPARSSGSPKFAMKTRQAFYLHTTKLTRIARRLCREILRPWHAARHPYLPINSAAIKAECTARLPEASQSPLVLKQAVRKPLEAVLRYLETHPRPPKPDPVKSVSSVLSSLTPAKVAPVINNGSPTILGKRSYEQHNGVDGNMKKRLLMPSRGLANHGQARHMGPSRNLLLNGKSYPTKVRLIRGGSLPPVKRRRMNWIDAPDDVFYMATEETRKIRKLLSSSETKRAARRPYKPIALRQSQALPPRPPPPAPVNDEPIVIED
row,Variant,effect of a mutation on the interaction
1,F85S,with no effect
2,T37A,with no effect

# Continued, values first:
row,effect of a mutation on the interaction,Variant
1,with no effect,T388M
2,with no effect,R235H
3,with no effect,E286D
4,with no effect,C265Y
5,with no effect,W390R
6,with no effect,M303T

# Variants of: B5
# Details: with prs8_human PSMC5, P62195
# Chain of prs8_human PSMC5, P62195 (P62195 whole entry): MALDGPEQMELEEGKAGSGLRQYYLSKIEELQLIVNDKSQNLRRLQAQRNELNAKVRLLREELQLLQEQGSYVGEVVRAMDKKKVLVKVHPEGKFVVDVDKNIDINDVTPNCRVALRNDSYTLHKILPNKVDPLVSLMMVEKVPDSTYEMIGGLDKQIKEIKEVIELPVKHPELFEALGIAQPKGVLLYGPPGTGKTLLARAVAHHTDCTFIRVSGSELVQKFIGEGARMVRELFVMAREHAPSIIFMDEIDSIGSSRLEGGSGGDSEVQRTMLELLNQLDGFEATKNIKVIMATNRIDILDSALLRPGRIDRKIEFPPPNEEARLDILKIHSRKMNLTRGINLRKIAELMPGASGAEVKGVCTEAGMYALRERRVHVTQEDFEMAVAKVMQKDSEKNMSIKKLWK
row,Variant,effect of a mutation on the interaction
1,F85S,with no effect
2,T37A,with no effect

# More lines, now with the values ahead:
row,effect of a mutation on the interaction,Variant
1,with no effect,T388M
2,with no effect,R235H
3,with no effect,E286D
4,with no effect,C265Y
5,with no effect,W390R
6,with no effect,M303T

# Variants of: B5
# Details: with snai1_human SNAI1, O95863
# Chain of snai1_human SNAI1, O95863 (O95863 whole entry): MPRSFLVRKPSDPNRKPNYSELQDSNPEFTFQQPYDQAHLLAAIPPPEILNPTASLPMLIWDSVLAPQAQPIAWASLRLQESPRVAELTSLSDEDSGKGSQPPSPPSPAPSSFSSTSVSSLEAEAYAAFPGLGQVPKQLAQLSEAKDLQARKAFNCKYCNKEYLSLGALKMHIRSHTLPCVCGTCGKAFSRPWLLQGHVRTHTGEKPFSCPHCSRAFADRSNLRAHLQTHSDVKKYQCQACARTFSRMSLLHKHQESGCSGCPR
row,Variant,effect of a mutation on the interaction
1,F85S,with no effect
2,T37A,with no effect

# The next lines start with the values.
row,effect of a mutation on the interaction,Variant
1,with no effect,T388M
2,with no effect,R235H
3,with no effect,E286D
4,with no effect,C265Y
5,with no effect,W390R
6,with no effect,M303T
